Results as given in the DeepSol protein solubility set.

experiment: soluble on expression in E. coli; label from the status in PepcDB or PDB records

Row | Sequence | soluble on expression in E. coli
1 | MSLSETASAENLLGAYLKDRRTRLDAAAFGLSGSRRRTPGLRREEVAQRANISPTWYTWLEQGRGGAPSADVLDRIARALMLTDVEREHLFLIGLGRPPEVRYQASDGVSPRLQRVLDALAFSPALVRTATWDVVAWNRAATAVLTDYGAIPPGQRNILRFIFCDPRVRAAQYDWDSVARFVVAAFRADAARAGAVSHVADFVDELCRTSPEFAALWRDNDVRHHGDGTKRLRHPVHGTMSFEYSSFNVEGRSDLSMIVYNPATPEDADRIRTLLAERADEGHHHHHH | soluble
2 | MSLSFLYFNDNSKIANAPLKNRFEKTQKESLIIKNNNEDKKAKSKPKFYLIIDDVGYDEFMLEQFIKLNLKITYAIIPFLPKSMSLYKKLKNANKTVIIHFPMQSKHRNSIEKFHINIKDKKEEIHKKIEKAFKKYPDAKIMNNHMGSLITSNKDLMKIILEKLKEIDRYFFDSVTIAGSVPEIIGKEIGVKVEKRDVFLDSKDTEESVTKELEKAKNIARKNGMVKVIGHIWSKNTLKVLKKEGPDLNQEFEFDNLLNLYEETIREGHHHHHH | not soluble
3 | MSLSFRFAFRPYQRRLRQPLRTARDAQITVRLGIWLRLETDTEVRWGEIAPWPSFGSETLAEAIAFCEAFPPDPEWEDLATAPDSLPACQFGFGCLRESNATDFLPTSAVLLPAGAAALTAIATASPATTYKWKIGLDLESELDLLPQLDRLLPSAAKLRLDANGGLTKAQADRLLQVLTAINERRSGRIEWLEQPLDPSQVDDLLQLVQDWPLVAIALDESVSQLSSLQFWQAQGWPGLYVLKPAIAGWPQTVRQFCQVHHLPVVVSSMFESPIGWRAVAAIAAQLGRADQAQGLGTTAWFTDDWESKTAAALWQHPEGHHHHHH | not soluble
4 | MSLSGLPESTLRYYEQIGIIDPIARDPSSGHRVYSDKDIESLTTIACLAATGMPLESMREYLKNRFDGPEGARRQIELLDAQSLRLAANAEALRIQQAYVSLKSLYWRAIAEGHEDEANRILEENKDVIENVKKQPGKGAIAREGHHHHHH | soluble
5 | MSLSHFDSQAPTWDENPKRSLMINAIAEALRSHLPLREDFRVMDYGCGTGELSLAILPWVGYVEGIDTSKGMIDRFSQKIQERNLPNIKAKFMRAGEALEGEFDLVVCNMVLHHIPDPLLYIRQFESSIRPGGHLAIIDLDKEDGSFHPQGTPGVFHQGFSYEEIRAWLDYCYLEERLHHPSLHLIQKNEREYPLTLTLAQKPHEGHHHHHH | soluble
6 | MSLSHNSSLPPFTASGFAEDQGAVRIWRKDSGDNVHFLAVFSPWRSGDTTTREYRWQGDNLTLININVYSKPPVNIRARFDDRGDLSFMQRESDGEKQQLSNDQIDLYRYRADQIRQISDALRQGRVVLRQGRWHAMEQTVTTCEGQTIKPDLDSQAIAHIERRQSRSSVDVSVAWLEAPEGSQLLLVANSDFCRWQPNEKTFEGHHHHHH | not soluble
7 | MSLSIPDRRAKLDRAHGVLSIRRQCRLLGLSRSSVYRTPLPANDDDLALMRRIDELFTARPFLGSRRMAWLISEDGVRINRKRVQRLMRKMGIEALGPKPRTSKPAPGHRIYPYLLRAMTIDRPNQVWATDITYIPMGRGFLYLVAVIDWASRAVLSWRLSNTMDVSFCVDALEEALSRFGKPQIFNTDQGSQFTSAAFTSVLEAAGIQISMDGRGRWMDNVFIERLWRSLKHEDVYLKFNEGHHHHHH | not soluble
8 | MSLSISFNNIPSALRVPLTYIEFDNTKAVSGPPTALHKVLMLGTKLATGSAKAGEAVRVSAYAQAKTLFGRGSQLAEMVKTFKAHNSTLDLWVLPLDEAPSGAKATGSVQITGTATQAGTFSLMIAGNNYKTAVTSGDTADVVAGKLQKLIAADQDVPVVATVAGNTITLTCRFKGETGNEIDLRCNYYSGEAFPEGLKATITDMKNGAVNPDMSVAITGLGAEWWNYIINPFTDTESLNLLRADLVKRWGPLKQIDGICFMAKRGTHAEVTTFAEQRNDYLFSLLATHKAPQPAYLWASAYAAVVAGSLAIDPARPVQTLVMDLLPPSMSDRWDLPERNTLLYSGVSTYTVNAGSQPQVEAAITMYRKNAFGDNDESYLYVETIATLSYLRYAIRSRITQKFPRHKLANDGTRIGPGQAIVTPKIIRNELLALFTELEFAGLVEDFEQFNQTLFVERDSNNPCRVNVLSNENLVNQFRIYAHAIQFILEGHHHHHH | soluble
9 | MSLSIVEPDLENCFRILIATDNHIGYAEKDPVRGQDSINTFREILELARDHDVDFILLAGDLFHENRPSRTCMHQTIALLREFTLGDKPIEFELLSDPMDGSTPGFSFPAVNYEDPNINIAIPVFSIHGNHDDPQGTGPEGALCALDVLSVSGVLNYFGKSDLVADENAADNPEKGIQIRPVLLRKGTTHVALYGCGNIRDQRMYQELRANKVKMFMPTGGNVPDSEWFNILLVHQNRVRHGPQNYVPENMFDDSMRLVIWGHEHDCRITPESVADKSYFITQPGSSVATSLAPGEAIPKHVGLLSIQGSQFQLEEIPLKTVRPFELDEVVLSYAAEQGAVDLNDRDSITSFLREQVEALILQAKKEGHHHHHH | not soluble
10 | MSLSKIIFPGFIDLHNHFPQTQVIASYGTKLLEWLNKYTFPNESLFVDDKHCERESKIFLDLLNHNGITTSVSFGSVHPNSVEYLFQEAHRRNMCVIAGNVLMDRNAPDTVLEKADKSYLSSKEIISKWHNVSRCKYAITPRFAITSTPELMEVSQTLCAENQSCYVQTHLSENIDEIETTLELFPDQKDYLSIYDKYKLLSNKTLLAHSIHLEMSEIERMKETKSIAVHCPTSNLFLGSGLFKFKELEEKGVRTAIATDVGGGTSFSMLRTLDEAYKVQQLGNYSLNPLASYFWSTMEGHHHHHH | soluble
11 | MSLSKPLKAIIIGAGISGMVASVRLREMGIEHTIFEKNNEFGGTWWENRYPGCGVDTPNLTYTFSFRPNDWSAFFPLRDEIENYLLETARESGLYDRVRFGTKVERAEWLADRNQWQVTVRAEDGSEEVHHADIVMSAVGILNMPVVPDIKGLSGFAGRVVHTSDWPQDIDLKGKRVAVVGNGASAMQVVPAIADQVAELTIFARSKQWAAPFPQFRKPVPNGVRYLMQVVPLYRAWVEQRLSWTFNDRVHGTLFRDPDWKEPARAVNAINDGHREFFTRYVREELGERQDLLPLVLPDYPPFAKRMLLDNGWYRTLRKPHVKLVPQRLAEVRGHTLVAQDGQEIEADVLILATGFQAANVLGSYDVIGRDGRDLHEFWEGDNAAAYLGTLVPGFPNFFILLGPNVGSGHGGSMIRNIENQAHYATRVIEALVKSGADAVEVREDVYGDYKARIDAAHEKLVWTHPGATNWYRNSRGRVVAITPWRNDAFWRMTREARPEDLSFSGAEGHHHHHH | soluble
12 | MSLSKPLQVNPHKLSPVMGAHLACLGVDGVMPIIHGAQGCSNFSKVFFTRHFSEPIVSHSTAVNDITAVLDGGACVAEAIDTLAKKSPFKLAAIITTGLTETKGDDVKGAIGQLSYPALYFPTPDYEGGLEEGFALAIEVFIKERMVSVTTPDPKLALILPHASMTPLEVEKLKEFLEDFGVRALALPDLSGSLDGHLEERQGSVSKGGITLEEIEEASRAGMILSIGESTRKARQAFLAKNPGAFDLNVESLYGLRSSDALIRALMDWTGHEPSVRIKRWRARLQDMMLDSHFALGGKRVIAALENDHLLGISKILEEVGMSFELAVATTGGPAMTKISAKEAVVGDLEHLMQNIESSEGVIACERLGGFLPKETPWLVRGYPIFERIGTGLGNDILYEGGCYLLKELANLFLKEHQAHEGHHHHHH | soluble
13 | MSLSKRAYFGTDGIRGQANKHPMTAEVALRVGLAAGKLFRSQDERRHLVVIGKDTRLSGYMIEPALVAGLTSVGLDVRLFGPLPTPAVAMMTRSMRADLGIMISASHNSFADNGIKLFGPDGYKLSDAQELGIEALMDQGLQEGLAAPRELGRVKRIDDAQARYVEIVKATFPRHLNLSGLRIVIDCANGAAYKVAPTALYELGAEVITLGVSPDGTNINEECGSTHPEAMAKMVREYRADIGIALDGDADRLVICDEKGVVVDGDQIMAIIAAASHKAGTLKGGGVVATVMSNLGLERQLNTMGLSLERTAVGDRYVMQRMREGGFNVGGEQSGHLILSDFSTTGDGLIAALQVLAVMVETDKPMSALGRQFEPVPQLLENVRFVGGKPLEAAAVKEAIADGEAQLNGAGRIVVRASGTEPLIRIMAEGDDPALVKKVVKSIASAVKEGHHHHHH | soluble
14 | MSLSKYAVSYVYKTFADIGSYAWAKKQIEVLASKGVINGTSDTTFTPQADITRADFMILLVKALGLTAEVTSNFDDVSEKDYYYEYVGIAKELGITTGVGNNKFNPKAKITRQDMMVLTTNALRIAGKISSTGTRADVERFSDKDQIASYAVEGVATLVKEGIVVGSGDIINPRGNASRAELAAIIYKIYYKEGHHHHHH | soluble
15 | MSLSNKSLTTGTAVDVLAGLPVKREASATGYSRTADFGAAWLDVDGNNCDTRNDILHRDLTDAVQRGGCKILSGTLNDKYSGESIHFVRGAKTSALVQVDHIVALKNAWVTGAQQLTQAQRVSFANDPLNLIAVDAHSNEQKSSGDAATWLPANKSSRCEYVARQISVKATYGLWVTPAEKSAMMDILADCSGQMAESSTFTEGHHHHHH | soluble
16 | MSLSNQEPIANYKFNYKTTANKVMKNINLSGKTIIITGGYSGIGLEMTKQLSRAGAKIIIPARRMEVAKKNLSKIKNIDILPLDLTNPESIHQFAESFLQNNSKLDILINSAGLMYLPLKRDSRGIEYHFATNHLGHYQLTLELLPALKNAKISRVINLSSRAQQMTPLLEDWNFEKIENYNPQIGYQQSKTANVLFSIKLDELGKKYGIRSFAVHPGMIPMTNIGRQNSPITPWLRYLADYFKLIHIPVFFNALKSGFDRSKYRYLKTIAQGAATPLWASTSPDLEGKGGLYCEDLNIARLMTSEEANNFSGGLRPHAIDHNDADRLWQISKNITGLDEGHHHHHH | not soluble
17 | MSLSPPKPSALAHVPGDEGWPIIGRTLAVLADPKGEVEKMARTYGPVYRSRVLGETSITLLGPEANELVLFDNTKLFSSTHGWGPILGRLFPRGLMMLDFDEHRLHRRTLSVAFKAGPMQSYLAELNAGIAHRVAEWRARPGEMLCYPAMKQLTLDLAATSFLGTAIGAETEEVNRAFIDMVAASVAPIRKPWPGTAMARGVKGRQRIVAYFAEQIPIRRAKGGDDLFSQLCRATHDDGALLSNQAIIDHMSFLMMAAHDTLTSSLTSFVAALAAHPEWQQKLREEIAGLGLKPGEPISFEQLDALPLTEMAFKEAMRLRPPVPSLPRRATRAFSFKGYTIPAGTMVAVNPLFTHHMPEIWPNPDQFDPLRFTDEASRGRHRFAWIPYGGGAHMCLGLNFAYMQAKCFAVHLLQHLDLSLPPNYQASWQMWPIPKPKDGLRVNVAPLNEGHHHHHH | soluble
18 | MSLSQFAAGAGKKAGEFYTPQEVSRILAEIVAIGHQRLRNVYDPTCGSGSLLLRAASIGNAVDIYGQEKNPTTYNLARMNMLLHGIRFSNFKIENGDTLEWDAFGDTQFDAVVANPPFSAEWSAADKFNTDDRFSKAGRLAPRKTADYAFILHMIYHLNEGGTMACVAPHGVLFRGNAEGVIRRFLIEKKNYVDAIIGLPANIFYGTSIPTCILVFKKEGHHHHHH | not soluble
19 | MSLSQVQVDRALAGLIVRAPLPAGWRAERMSALDVAAVAAVEQAAFAFPWSRGNFEDSLKSGHLGIVLRDGGNQVAGYLILMPVVDEMHLLNVTVAPAWQRQGLGRWLLRAAQALTLAHGFASLLLEVRPSNAGAIALYRRVGFAEIGRRKRYYPAENNTREDALVMRIACEAGGVEAAEGHHHHHH | not soluble
20 | MSLSRGAGEAAYRQRLVAVGDLHGDIDNAKKTLQMARIIDDDSKWVASTDILVQTGDIVDRGAYADDIYRLMQSLRGQAASQGGKVVSILGNHEVMNAIGDWRYVTKGDIARFGGTKSRQHALSAEGWLGQEWLANYSTTALVPISPYPSSPTFSFTHGSLRPSYANLTPYPAAINDLGHSLLTKALTPPMAPPYPPNPYSGLPKGTTHEEADLYAEGGPLWWRGLAEREEAQVCEWAKNLKQKIGARRIIGGHTPNFEKIVARCNASVIIIDTGISSAYGGVLSALEIVYTLTPVDRRGRDHSQDPLLLSTSSESIAGLKGRFVEREEVHAIYEHSRKWLALEEREVVLDEGHHHHHH | not soluble
